Test results published in the supplement of paper PMC7125110.
± gives the standard error. For part of these data: Variants at the floor of the assay were thinned out.

B1: glmS ribozyme (parent)
chain: AUAAAAGCGCCAGAACUACAGAAAUGUAGUUGACGAGGAGGAGGUUUAUCGAAUUUUCGGCGGAUGCCUCCAAA

Experiments:
Settings in all cases: with glucosamine-6-phosphate
glucosamine-6-phosphate [1] = variants of: B1; assay: self-cleavage kobs at 40 uM GlcN6P; higher = faster cleavage; RNA array
Outline: (§1)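 Using a hybridised Cy3 probe at 37 °C, barcoded ribozyme variants transcribed in situ by E. coli RNA polymerase on sequenced MiSeq chips were monitored across tiles imaged over ~14 h. The flow contained glucosamine-6-phosphate from 40 μM to 10 mM in HEPES/KCl/Mg(OAc)2 buffer. Signals were normalised to baseline and to non-cleaving reference variants before per-tile medians were fit to one- or two-exponential decays to yield kobs. Weighted Michaelis–Menten fits across concentrations gave kcat and KM.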

glucosamine-6-phosphate [2] = variants of: B1; assay: self-cleavage kobs at 160 uM GlcN6P; higher = faster cleavage; RNA array
Outline: as §1

glucosamine-6-phosphate [3] = variants of: B1; assay: self-cleavage kobs at 640 uM GlcN6P; higher = faster cleavage; RNA array
Outline: as §1

glucosamine-6-phosphate [4] = variants of: B1; assay: self-cleavage kobs at 2500 uM GlcN6P; higher = faster cleavage; RNA array
Outline: as §1

glucosamine-6-phosphate [5] = variants of: B1; assay: self-cleavage kobs at 10000 uM GlcN6P; higher = faster cleavage; RNA array
Outline: as §1

glucosamine-6-phosphate [6] = variants of: B1; assay: kcat; higher = faster cleavage; RNA array
Outline: as §1

glucosamine-6-phosphate [7] = variants of: B1; assay: KM; higher = weaker cofactor use; RNA array
Outline: as §1

Variant | self-cleavage kobs at 40 uM GlcN6P (glucosamine-6-phosphate [1]) | self-cleavage kobs at 160 uM GlcN6P (glucosamine-6-phosphate [2]) | self-cleavage kobs at 640 uM GlcN6P (glucosamine-6-phosphate [3]) | self-cleavage kobs at 2500 uM GlcN6P (glucosamine-6-phosphate [4]) | self-cleavage kobs at 10000 uM GlcN6P (glucosamine-6-phosphate [5]) | kcat (glucosamine-6-phosphate [6]) | KM (glucosamine-6-phosphate [7])
A1C | 0.00111 ± 0.00028 s⁻¹ | 0.00363 ± 0.00095 s⁻¹ | 0.0192 ± 0.0042 s⁻¹ | 0.0128 ± 0.0042 s⁻¹ | 0.0709 ± 0.033 s⁻¹ | – | –
A1G | 0.00124 ± 0.00034 s⁻¹ | – | – | – | 0.0405 ± 0.014 s⁻¹ | – | –
C67U C68U | – | 3.97e-05 ± 8.6e-06 s⁻¹ | 7.85e-05 ± 9.1e-06 s⁻¹ | 0.000124 ± 1.3e-05 s⁻¹ | 0.000107 ± 7.4e-06 s⁻¹ | 0.000115 ± 7.3e-06 s⁻¹ | 293 ± 85 µM
G44C C50A | – | – | – | – | – | – | 105 ± 18 µM
A6C G63C | < 1e-05 s⁻¹ | – | < 1e-05 s⁻¹ | – | < 1e-05 s⁻¹ | – | –
A6G G32A U49G U55A | < 1e-05 s⁻¹ | – | – | – | < 1e-05 s⁻¹ | – | –
A64U C70G | < 1e-05 s⁻¹ | – | – | – | – | 1.26e-05 ± 2.6e-06 s⁻¹ | –
C67A C70A | – | – | 4.23e-05 ± 1.8e-05 s⁻¹ | 6.33e-05 ± 1e-05 s⁻¹ | 4.28e-05 ± 7.3e-06 s⁻¹ | 5e-05 ± 6.5e-06 s⁻¹ | –
C67A C70U | 9.1e-05 ± 9.4e-06 s⁻¹ | 0.000211 ± 3.6e-05 s⁻¹ | 0.000461 ± 6.6e-05 s⁻¹ | 0.00129 ± 0.00019 s⁻¹ | 0.00206 ± 0.00033 s⁻¹ | 0.00153 ± 0.00062 s⁻¹ | –
A6C A14U G41U C70U | < 1e-05 s⁻¹ | – | – | – | – | – | –
A6C G35U | < 1e-05 s⁻¹ | < 1e-05 s⁻¹ | – | < 1e-05 s⁻¹ | < 1e-05 s⁻¹ | – | –
U69A C71A | – | – | – | – | – | 2.44e-05 ± 5.9e-06 s⁻¹ | –
U65C C67G | – | – | 5.5e-05 ± 1.4e-05 s⁻¹ | – | 6.72e-05 ± 8.1e-06 s⁻¹ | 6.8e-05 ± 3.8e-06 s⁻¹ | –
U2C | 0.000889 ± 0.00014 s⁻¹ | – | 0.0102 ± 0.0023 s⁻¹ | 0.00926 ± 0.003 s⁻¹ | 0.0584 ± 0.014 s⁻¹ | – | –
A6G G41U C50G | < 1e-05 s⁻¹ | – | – | < 1e-05 s⁻¹ | < 1e-05 s⁻¹ | – | –
G66U C68U | 2.21e-05 ± 1e-05 s⁻¹ | 3.82e-05 ± 1.3e-05 s⁻¹ | 0.000116 ± 1.2e-05 s⁻¹ | 0.000226 ± 4e-05 s⁻¹ | 0.000311 ± 2.9e-05 s⁻¹ | 0.000348 ± 2.4e-05 s⁻¹ | 1260 ± 190 µM
G66U C68G | – | 3.35e-05 ± 1.3e-05 s⁻¹ | 8.19e-05 ± 1.4e-05 s⁻¹ | 6.89e-05 ± 1.1e-05 s⁻¹ | – | 4.91e-05 ± 1.9e-05 s⁻¹ | –
A6G C50G C58G | 0.000111 ± 2.7e-05 s⁻¹ | 0.000451 ± 0.0001 s⁻¹ | – | – | – | – | –
A6G A33G A48G A64U | < 1e-05 s⁻¹ | – | – | – | < 1e-05 s⁻¹ | – | –
U69C C71U | 5.8e-05 ± 1.1e-05 s⁻¹ | 0.000208 ± 5.6e-05 s⁻¹ | 0.000326 ± 9.3e-05 s⁻¹ | 0.000432 ± 9.4e-05 s⁻¹ | 0.000676 ± 0.00011 s⁻¹ | 0.000591 ± 7.2e-05 s⁻¹ | 368 ± 88 µM
U65A G66A C67G C71U | – | – | – | 8.49e-05 ± 2.1e-05 s⁻¹ | 6.69e-05 ± 1.9e-05 s⁻¹ | 8.39e-05 ± 1.9e-05 s⁻¹ | –

Variant | self-cleavage kobs at 40 uM GlcN6P (glucosamine-6-phosphate [1]) | self-cleavage kobs at 160 uM GlcN6P (glucosamine-6-phosphate [2]) | self-cleavage kobs at 640 uM GlcN6P (glucosamine-6-phosphate [3]) | self-cleavage kobs at 2500 uM GlcN6P (glucosamine-6-phosphate [4]) | self-cleavage kobs at 10000 uM GlcN6P (glucosamine-6-phosphate [5]) | kcat (glucosamine-6-phosphate [6]) | KM (glucosamine-6-phosphate [7])
A6G G40C | < 1e-05 s⁻¹ | – | < 1e-05 s⁻¹ | – | – | – | –
A6G G9A G44A C71A | < 1e-05 s⁻¹ | – | – | < 1e-05 s⁻¹ | < 1e-05 s⁻¹ | – | –
A6G G38U A39G G51A C68G C70U | 7.83e-05 ± 3.2e-05 s⁻¹ | – | – | – | – | – | –
G13A C61G | – | – | – | – | – | – | 127 ± 17 µM
C10U C50G | 6.14e-05 ± 1e-05 s⁻¹ | 9.85e-05 ± 1.3e-05 s⁻¹ | 0.000136 ± 1.7e-05 s⁻¹ | 0.00051 ± 0.0002 s⁻¹ | 0.000116 ± 3e-05 s⁻¹ | – | 51.5 ± 26 µM
A42G A53G | 0.00144 ± 0.00031 s⁻¹ | 0.00422 ± 0.0013 s⁻¹ | 0.00893 ± 0.0025 s⁻¹ | 0.0414 ± 0.018 s⁻¹ | 0.00932 ± 0.0024 s⁻¹ | – | 248 ± 95 µM
C67G U69G | – | < 1e-05 s⁻¹ | – | – | < 1e-05 s⁻¹ | < 1e-05 s⁻¹ | –
C67G U69C | 5.09e-05 ± 1.4e-05 s⁻¹ | 0.000179 ± 3.4e-05 s⁻¹ | 0.000506 ± 9.2e-05 s⁻¹ | 0.00077 ± 0.00014 s⁻¹ | 0.00127 ± 0.0002 s⁻¹ | 0.00123 ± 0.00012 s⁻¹ | 958 ± 170 µM
A6G C16U U30A G43U G62U C70A | < 1e-05 s⁻¹ | – | – | – | < 1e-05 s⁻¹ | – | –
A6G C8G A33G A48U C58U A64U C70A | 3.84e-05 ± 1.7e-05 s⁻¹ | – | – | – | 0.000104 ± 3e-05 s⁻¹ | – | –
A6C A52U U54A U55C | < 1e-05 s⁻¹ | – | < 1e-05 s⁻¹ | – | < 1e-05 s⁻¹ | – | –
A6C C34A C58A | < 1e-05 s⁻¹ | – | – | – | < 1e-05 s⁻¹ | – | –
A6G A36C G51A | < 1e-05 s⁻¹ | – | – | < 1e-05 s⁻¹ | < 1e-05 s⁻¹ | – | –
A64U G66U | < 1e-05 s⁻¹ | – | – | – | – | < 1e-05 s⁻¹ | –
A6C G13U A53U | < 1e-05 s⁻¹ | – | – | – | < 1e-05 s⁻¹ | – | –
A6C C8A A48U A52C | < 1e-05 s⁻¹ | – | – | – | < 1e-05 s⁻¹ | – | –
U65G U69G | – | 4.06e-05 ± 1.8e-05 s⁻¹ | 3.94e-05 ± 1.3e-05 s⁻¹ | 6.29e-05 ± 1.2e-05 s⁻¹ | 6.56e-05 ± 1.1e-05 s⁻¹ | 6.55e-05 ± 6.1e-06 s⁻¹ | –
U65G U69A | – | – | 5.5e-05 ± 1.2e-05 s⁻¹ | 0.000116 ± 2.2e-05 s⁻¹ | 0.000174 ± 5.3e-05 s⁻¹ | 0.000187 ± 3.2e-05 s⁻¹ | 1450 ± 480 µM
A6C A52U C67G | < 1e-05 s⁻¹ | – | – | – | – | – | –
G66C C70A | – | 8.3e-05 ± 3e-05 s⁻¹ | 4.17e-05 ± 1.3e-05 s⁻¹ | 6.82e-05 ± 1.2e-05 s⁻¹ | 9e-05 ± 1.4e-05 s⁻¹ | 8.82e-05 ± 1.9e-05 s⁻¹ | –
